Results reported in IntAct's records for PubMed 25910212.

B1: EF-hand domain-containing protein 1 (Homo sapiens), Q5JVL4 (parent)
chain: MVSNPVHGLPFLPGTSFKDSTKTAFHRSQTLSYRNGYAIVRRPTVGIGGDRLQFNQLSQAELDELASKAPVLTYGQPKQAPPADFIPAHVAFDKKVLKFDAYFQEDVPMSTEEQYRIRQVNIYYYLEDDSMSVIEPVVENSGILQGKLIKRQRLAKNDRGDHYHWKDLNRGINITIYGKTFRVVDCDQFTQVFLESQGIELNPPEKMALDPYTELRKQPLRKYVTPSDFDQLKQFLTFDKQVLRFYAIWDDTDSMYGECRTYIIHYYLMDDTVEIREVHERNDGRDPFPLLMNRQRVPKVLVENAKNFPQCVLEISDQEVLEWYTAKDFIVGKSLTILGRTFFIYDCDPFTRRYYKEKFGITDLPRIDVSKREPPPVKQELPPYNGFGLVEDSAQNCFALIPKAPKKDVIKMLVNDNKVLRYLAVLESPIPEDKDRRFVFSYFLATDMISIFEPPVRNSGIIGGKYLGRTKVVKPYSTVDNPVYYGPSDFFIGAVIEVFGHRFIILDTDEYVLKYMESNAAQYSPEALASIQNHVRKREAPAPEAESKQTEKDPGVQELEALIDTIQKQLKDHSCKDNIREAFQIYDKEASGYVDRDMFFKICESLNVPVDDSLVKELIRMCSHGEGKINYYNFVRAFSN
B2: Ribonucleoside-diphosphate reductase subunit M2 B (Homo sapiens), Q7LG56 (parent)
chain: MGDPERPEAAGLDQDERSSSDTNESEIKSNEEPLLRKSSRRFVIFPIQYPDIWKMYKQAQASFWTAEEVDLSKDLPHWNKLKADEKYFISHILAFFAASDGIVNENLVERFSQEVQVPEARCFYGFQILIENVHSEMYSLLIDTYIRDPKKREFLFNAIETMPYVKKKADWALRWIADRKSTFGERVVAFAAVEGVFFSGSFAAIFWLKKRGLMPGLTFSNELISRDEGLHCDFACLMFQYLVNKPSEERVREIIVDAVKIEQEFLTEALPVGLIGMNCILMKQYIEFVADRLLVELGFSKVFQAENPFDFMENISLEGKTNFFEKRVSEYQRFAVMAETTDNVFTLDADF
partner: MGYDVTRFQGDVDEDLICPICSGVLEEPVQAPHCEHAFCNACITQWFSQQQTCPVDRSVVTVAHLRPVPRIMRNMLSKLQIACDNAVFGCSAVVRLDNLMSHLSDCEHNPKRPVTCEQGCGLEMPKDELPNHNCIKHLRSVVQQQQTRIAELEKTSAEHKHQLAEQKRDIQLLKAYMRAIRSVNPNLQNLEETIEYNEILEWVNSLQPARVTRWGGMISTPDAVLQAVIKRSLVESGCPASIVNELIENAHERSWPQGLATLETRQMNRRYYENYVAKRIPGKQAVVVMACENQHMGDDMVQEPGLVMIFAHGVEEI
B3: Estrogen receptor beta (Homo sapiens), Q92731-3 (parent)
chain: MDIKNSPSSLNSPSSYNCSQSILPLEHGSIYIPSSYVDSHHEYPAMTFYSPAVMNYSIPSNVTNLEGGPGRQTTSPNVLWPTPGHLSPLVVHRQLSHLYAEPQKSPWCEARSLEHTLPVNRETLKRKVSGNRCASPVTGPGSKRDAHFCAVCSDYASGYHYGVWSCEGCKAFFKRSIQGHNDYICPATNQCTIDKNRRKSCQACRLRKCYEVGMVKCGSRRERCGYRLVRRQRSADEQLHCAGKAKRSGGHAPRVRELLLDALSPEQLVLTLLEAEPPHVLISRPSAPFTEASMMMSLTKLADKELVHMISWAKKIPGMRGNA
partner: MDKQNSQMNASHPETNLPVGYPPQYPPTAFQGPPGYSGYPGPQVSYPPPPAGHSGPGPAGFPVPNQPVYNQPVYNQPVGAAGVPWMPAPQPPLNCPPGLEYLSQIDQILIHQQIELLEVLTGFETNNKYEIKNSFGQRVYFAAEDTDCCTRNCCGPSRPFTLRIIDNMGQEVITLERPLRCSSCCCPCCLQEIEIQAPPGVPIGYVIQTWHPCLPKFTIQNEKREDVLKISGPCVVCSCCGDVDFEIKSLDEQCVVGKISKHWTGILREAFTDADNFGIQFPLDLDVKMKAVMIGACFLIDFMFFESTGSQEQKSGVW
B4: Progranulin (Homo sapiens), P28799 (parent)
chain: MWTLVSWVALTAGLVAGTRCPDGQFCPVACCLDPGGASYSCCRPLLDKWPTTLSRHLGGPCQVDAHCSAGHSCIFTVSGTSSCCPFPEAVACGDGHHCCPRGFHCSADGRSCFQRSGNNSVGAIQCPDSQFECPDFSTCCVMVDGSWGCCPMPQASCCEDRVHCCPHGAFCDLVHTRCITPTGTHPLAKKLPAQRTNRAVALSSSVMCPDARSRCPDGSTCCELPSGKYGCCPMPNATCCSDHLHCCPQDTVCDLIQSKCLSKENATTDLLTKLPAHTVGDVKCDMEVSCPDGYTCCRLQSGAWGCCPFTQAVCCEDHIHCCPAGFTCDTQKGTCEQGPHQVPWMEKAPAHLSLPDPQALKRDVPCDNVSSCPSSDTCCQLTSGEWGCCPIPEAVCCSDHQHCCPQGYTCVAEGQCQRGSEIVAGLEKMPARRASLSHPRDIGCDQHTSCPVGQTCCPSLGGSWACCQLPHAVCCEDRQHCCPAGYTCNVKARSCEKEVVSAQPATFLARSPHVGVKDVECGEGHFCHDNQTCCRDNRQGWACCPYRQGVCCADRRHCCPAGFRCAARGTKCLRREAPRWDAPLRDPALRQLL

Variants of: B1
Conditions: with ikzf3_human IKZF3, Q9UKT9
Chain of ikzf3_human IKZF3, Q9UKT9 (Q9UKT9 whole entry): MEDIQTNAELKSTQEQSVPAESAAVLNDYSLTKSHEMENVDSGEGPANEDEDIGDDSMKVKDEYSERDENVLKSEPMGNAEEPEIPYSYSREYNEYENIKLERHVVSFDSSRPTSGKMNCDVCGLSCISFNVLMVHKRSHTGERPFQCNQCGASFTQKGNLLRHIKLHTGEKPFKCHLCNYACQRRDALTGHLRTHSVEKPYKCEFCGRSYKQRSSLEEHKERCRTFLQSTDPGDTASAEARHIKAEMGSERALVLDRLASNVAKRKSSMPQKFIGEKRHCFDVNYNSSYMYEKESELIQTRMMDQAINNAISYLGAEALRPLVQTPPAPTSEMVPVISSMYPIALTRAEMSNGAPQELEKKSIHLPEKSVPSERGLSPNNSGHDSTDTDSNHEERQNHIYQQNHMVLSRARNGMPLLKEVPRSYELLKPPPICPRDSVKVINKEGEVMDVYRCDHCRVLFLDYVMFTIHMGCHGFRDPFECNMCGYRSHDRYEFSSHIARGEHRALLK

Row | Variant | effect of a mutation on the interaction
1 | P77T | disrupting interaction strength
2 | R159W | with no effect
3 | R221H | disrupting interaction strength
4 | A394S | disrupting interaction strength
5 | M448T | with no effect
6 | T508R | with no effect

Variants of: B1
Conditions: with kctd4_human KCTD4, Q8WVF5
Chain of kctd4_human KCTD4, Q8WVF5 (Q8WVF5 whole entry): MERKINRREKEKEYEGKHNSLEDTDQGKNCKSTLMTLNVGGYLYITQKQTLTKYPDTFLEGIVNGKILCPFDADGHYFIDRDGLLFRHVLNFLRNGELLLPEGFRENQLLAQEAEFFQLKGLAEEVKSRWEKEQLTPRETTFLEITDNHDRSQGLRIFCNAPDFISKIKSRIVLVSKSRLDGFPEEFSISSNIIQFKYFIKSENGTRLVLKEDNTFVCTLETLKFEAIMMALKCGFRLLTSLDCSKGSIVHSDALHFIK

Row | Variant | effect of a mutation on the interaction
7 | P77T | disrupting interaction strength
8 | R159W | with no effect
9 | R221H | disrupting interaction strength
10 | A394S | disrupting interaction strength
11 | M448T | with no effect
12 | T508R | with no effect

Variants of: B1
Conditions: with rim3a_human RIMBP3, Q9UFD9
Chain of rim3a_human RIMBP3, Q9UFD9 (Q9UFD9 whole entry): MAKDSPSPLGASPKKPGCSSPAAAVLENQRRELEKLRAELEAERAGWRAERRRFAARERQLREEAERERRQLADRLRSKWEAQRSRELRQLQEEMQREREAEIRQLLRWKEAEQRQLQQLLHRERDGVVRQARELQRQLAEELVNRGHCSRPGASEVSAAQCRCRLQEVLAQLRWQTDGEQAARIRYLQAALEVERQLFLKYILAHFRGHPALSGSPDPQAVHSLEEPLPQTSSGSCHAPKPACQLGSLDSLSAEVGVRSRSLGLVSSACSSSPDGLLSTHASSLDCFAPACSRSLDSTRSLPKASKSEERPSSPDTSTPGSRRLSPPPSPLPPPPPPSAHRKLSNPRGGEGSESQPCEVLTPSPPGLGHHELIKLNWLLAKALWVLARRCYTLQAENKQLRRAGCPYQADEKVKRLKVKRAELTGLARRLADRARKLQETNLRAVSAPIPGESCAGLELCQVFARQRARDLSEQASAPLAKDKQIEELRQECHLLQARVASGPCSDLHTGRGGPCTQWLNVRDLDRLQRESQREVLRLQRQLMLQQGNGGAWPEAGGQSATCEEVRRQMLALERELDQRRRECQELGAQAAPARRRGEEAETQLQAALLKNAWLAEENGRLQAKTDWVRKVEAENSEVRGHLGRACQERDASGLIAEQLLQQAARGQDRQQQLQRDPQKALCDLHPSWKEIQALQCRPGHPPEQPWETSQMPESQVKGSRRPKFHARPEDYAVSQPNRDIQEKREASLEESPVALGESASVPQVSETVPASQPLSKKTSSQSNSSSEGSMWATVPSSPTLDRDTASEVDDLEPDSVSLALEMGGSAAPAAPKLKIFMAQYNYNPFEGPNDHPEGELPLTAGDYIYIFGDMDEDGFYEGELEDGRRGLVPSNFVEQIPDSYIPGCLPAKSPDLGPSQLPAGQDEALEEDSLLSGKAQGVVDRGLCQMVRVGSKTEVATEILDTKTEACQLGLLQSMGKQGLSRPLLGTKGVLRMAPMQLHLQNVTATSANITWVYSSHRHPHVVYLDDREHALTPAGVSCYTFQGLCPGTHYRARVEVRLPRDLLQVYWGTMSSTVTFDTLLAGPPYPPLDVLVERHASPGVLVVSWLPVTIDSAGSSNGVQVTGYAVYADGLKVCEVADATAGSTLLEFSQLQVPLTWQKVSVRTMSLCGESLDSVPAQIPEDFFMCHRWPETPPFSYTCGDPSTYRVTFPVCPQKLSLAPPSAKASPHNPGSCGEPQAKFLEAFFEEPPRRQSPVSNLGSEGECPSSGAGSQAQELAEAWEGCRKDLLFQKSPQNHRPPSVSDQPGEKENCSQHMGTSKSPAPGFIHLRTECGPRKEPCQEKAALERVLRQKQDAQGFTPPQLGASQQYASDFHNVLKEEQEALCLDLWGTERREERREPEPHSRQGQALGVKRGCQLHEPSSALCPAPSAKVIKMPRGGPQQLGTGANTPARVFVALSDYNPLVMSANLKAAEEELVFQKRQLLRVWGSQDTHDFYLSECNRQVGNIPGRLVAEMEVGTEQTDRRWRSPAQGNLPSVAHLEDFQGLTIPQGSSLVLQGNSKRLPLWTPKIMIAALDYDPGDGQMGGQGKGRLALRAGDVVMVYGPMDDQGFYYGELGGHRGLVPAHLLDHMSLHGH

Row | Variant | effect of a mutation on the interaction
13 | P77T | disrupting interaction strength
14 | R159W | with no effect
15 | R221H | disrupting interaction strength
16 | A394S | disrupting interaction strength
17 | M448T | with no effect
18 | T508R | with no effect

Variants of: B1
Conditions: with trip6_human TRIP6, Q15654
Chain of trip6_human TRIP6, Q15654 (Q15654 whole entry): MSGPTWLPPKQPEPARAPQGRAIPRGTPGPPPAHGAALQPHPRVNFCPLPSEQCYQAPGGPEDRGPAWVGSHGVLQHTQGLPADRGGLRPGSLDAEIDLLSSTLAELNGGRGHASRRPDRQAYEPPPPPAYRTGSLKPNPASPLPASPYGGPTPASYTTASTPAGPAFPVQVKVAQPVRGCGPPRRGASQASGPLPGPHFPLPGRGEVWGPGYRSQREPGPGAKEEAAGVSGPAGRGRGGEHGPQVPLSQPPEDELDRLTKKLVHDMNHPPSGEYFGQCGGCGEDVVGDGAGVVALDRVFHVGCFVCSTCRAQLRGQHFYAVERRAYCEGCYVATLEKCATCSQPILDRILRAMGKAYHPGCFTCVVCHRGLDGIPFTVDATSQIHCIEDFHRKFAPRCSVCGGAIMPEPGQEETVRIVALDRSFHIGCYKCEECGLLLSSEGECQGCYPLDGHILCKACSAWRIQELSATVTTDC

Row | Variant | effect of a mutation on the interaction
19 | P77T | disrupting interaction strength
20 | R159W | with no effect
21 | R221H | disrupting interaction strength
22 | A394S | disrupting interaction strength
23 | M448T | with no effect
24 | T508R | with no effect

Variants of: B1
Conditions: with KRT15, P19012
Chain of KRT15, P19012 (P19012 whole entry): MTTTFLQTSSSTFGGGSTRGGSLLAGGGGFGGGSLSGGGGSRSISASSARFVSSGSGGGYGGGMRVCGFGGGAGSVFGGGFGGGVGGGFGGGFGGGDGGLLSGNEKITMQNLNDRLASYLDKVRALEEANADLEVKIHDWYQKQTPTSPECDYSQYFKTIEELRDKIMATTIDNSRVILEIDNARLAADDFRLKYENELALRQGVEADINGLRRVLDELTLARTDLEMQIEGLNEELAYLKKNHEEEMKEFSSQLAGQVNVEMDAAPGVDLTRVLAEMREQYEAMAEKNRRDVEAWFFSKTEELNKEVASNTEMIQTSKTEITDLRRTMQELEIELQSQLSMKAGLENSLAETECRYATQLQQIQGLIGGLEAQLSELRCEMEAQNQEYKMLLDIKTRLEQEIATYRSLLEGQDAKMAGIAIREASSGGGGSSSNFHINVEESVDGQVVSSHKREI

Row | Variant | effect of a mutation on the interaction
25 | P77T | disrupting interaction strength
26 | R159W | with no effect
27 | R221H | disrupting interaction strength
28 | A394S | disrupting interaction strength
29 | M448T | with no effect
30 | T508R | with no effect

Variants of: B1
Conditions: with TCF4, P15884-3
Chain of TCF4, P15884-3 (P15884 other isoform, or with tags, fused parts or gaps): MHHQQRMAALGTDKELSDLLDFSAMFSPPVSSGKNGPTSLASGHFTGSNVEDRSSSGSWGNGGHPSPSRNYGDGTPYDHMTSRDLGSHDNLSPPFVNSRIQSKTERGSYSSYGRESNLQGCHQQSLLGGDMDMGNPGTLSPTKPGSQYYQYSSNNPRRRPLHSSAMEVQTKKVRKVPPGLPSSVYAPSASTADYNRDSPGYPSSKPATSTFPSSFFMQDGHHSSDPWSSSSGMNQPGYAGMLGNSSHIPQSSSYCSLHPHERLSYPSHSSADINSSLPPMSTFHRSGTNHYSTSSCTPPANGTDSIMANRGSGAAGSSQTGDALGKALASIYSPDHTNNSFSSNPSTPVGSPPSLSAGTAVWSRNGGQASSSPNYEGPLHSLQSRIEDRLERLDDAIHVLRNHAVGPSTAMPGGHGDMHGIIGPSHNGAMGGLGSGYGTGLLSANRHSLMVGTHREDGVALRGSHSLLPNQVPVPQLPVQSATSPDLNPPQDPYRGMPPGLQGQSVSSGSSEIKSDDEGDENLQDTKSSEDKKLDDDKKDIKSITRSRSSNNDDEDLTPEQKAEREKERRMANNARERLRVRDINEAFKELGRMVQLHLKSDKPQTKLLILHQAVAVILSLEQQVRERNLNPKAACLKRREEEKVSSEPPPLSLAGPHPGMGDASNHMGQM

Row | Variant | effect of a mutation on the interaction
31 | P77T | disrupting interaction strength
32 | R159W | with no effect
33 | R221H | disrupting interaction strength
34 | A394S | disrupting interaction strength
35 | M448T | with no effect
36 | T508R | disrupting interaction strength

Variants of: B1
Conditions: with goga2_human GOLGA2, Q08379
Chain of goga2_human GOLGA2, Q08379 (Q08379 whole entry): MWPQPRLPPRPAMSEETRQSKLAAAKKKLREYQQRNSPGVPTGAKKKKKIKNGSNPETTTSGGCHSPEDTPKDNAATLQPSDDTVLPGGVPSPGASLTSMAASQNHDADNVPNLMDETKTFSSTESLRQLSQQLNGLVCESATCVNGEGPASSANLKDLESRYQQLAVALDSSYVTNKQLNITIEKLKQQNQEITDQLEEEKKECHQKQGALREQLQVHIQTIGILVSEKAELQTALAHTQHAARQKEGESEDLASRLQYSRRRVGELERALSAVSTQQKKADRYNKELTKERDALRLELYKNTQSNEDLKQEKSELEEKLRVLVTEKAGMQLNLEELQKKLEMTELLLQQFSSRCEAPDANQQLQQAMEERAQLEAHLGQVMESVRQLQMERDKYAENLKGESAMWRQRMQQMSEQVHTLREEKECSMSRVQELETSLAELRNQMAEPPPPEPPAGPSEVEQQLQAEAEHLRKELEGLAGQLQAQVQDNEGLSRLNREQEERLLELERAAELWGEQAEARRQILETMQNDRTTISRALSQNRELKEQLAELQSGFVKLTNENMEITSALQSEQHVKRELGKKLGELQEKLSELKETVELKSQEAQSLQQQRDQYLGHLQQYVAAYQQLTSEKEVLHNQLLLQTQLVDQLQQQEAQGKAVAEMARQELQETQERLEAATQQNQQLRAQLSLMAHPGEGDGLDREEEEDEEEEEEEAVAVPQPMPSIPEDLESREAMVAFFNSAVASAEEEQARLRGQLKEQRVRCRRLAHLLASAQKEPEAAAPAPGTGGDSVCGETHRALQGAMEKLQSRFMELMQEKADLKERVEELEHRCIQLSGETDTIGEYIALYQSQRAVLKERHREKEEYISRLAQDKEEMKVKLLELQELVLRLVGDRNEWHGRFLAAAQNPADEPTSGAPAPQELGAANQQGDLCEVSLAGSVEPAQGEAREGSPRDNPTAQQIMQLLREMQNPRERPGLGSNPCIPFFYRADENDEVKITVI

Row | Variant | effect of a mutation on the interaction
37 | P77T | disrupting interaction strength
38 | R159W | with no effect
39 | R221H | disrupting interaction strength
40 | A394S | disrupting interaction strength
41 | M448T | with no effect
42 | T508R | with no effect

Variants of: B2
Conditions: with rnf41_human RNF41, Q9H4P4

Row | Variant | effect of a mutation on the interaction
43 | W64R | disrupting interaction strength
44 | C236F | with no effect

Variants of: B3
Conditions: with pls1_human PLSCR1, O15162

Row | Variant | effect of a mutation on the interaction
45 | F289L | with no effect

Variants of: B4
Conditions: with hxa1_human HOXA1, P49639

Row | Variant | effect of a mutation on the interaction
46 | A9D | disrupting interaction strength

Variants of: B4
Conditions: with ARFGAP1, Q8N6T3-3

Row | Variant | effect of a mutation on the interaction
47 | A9D | disrupting interaction strength

Variants of: B4
Conditions: with sgta_human SGTA

Row | Variant | effect of a mutation on the interaction
48 | A9D | disrupting interaction strength

Variants of: B4
Conditions: with otx1_human OTX1, P32242

Row | Variant | effect of a mutation on the interaction
49 | A9D | disrupting interaction strength

Variants of: B4
Conditions: with ccd33_human CCDC33, Q8N5R6

Row | Variant | effect of a mutation on the interaction
50 | A9D | disrupting interaction strength
